Assay [1] addresses human melanocortin-1 (MC1) receptor (human).
Assay [2] addresses human melanocortin-4 (MC4) receptor (human).

We go through 3 substances from patent US5703220.

The substance β-MSH (peptide) showed a cAMP generation in transfected L-cells (fold lower potency) in assay [1] of 10. In assay [2], Pro^11 γ-MSH (peptide) registered an EC50 of cAMP response in transfected Hepa cells of 0.1 µM and an efficacy of cAMP response in transfected Hepa cells (% of the maximum response of α-MSH) of 75. Taken in the same sequence, the figures for γ-MSH (peptide) were 0.02 µM and 45.
